{"source": "paper PMC6707239", "key": {"[1]": {"target": "human mitochondrial heat shock protein 60 (hsp60), wild type (human) (UniProt P10809)", "assay": "dynamic light scattering; Malvern Zetasizer Nano ZS, hsp60 (wild type or mutant) without nucleotide (APO); percent volume"}, "[2]": {"target": "human mitochondrial heat shock protein 60 (hsp60), wild type (human) (UniProt P10809)", "assay": "negative-stain electron microscopy; hsp60 and hsp10 (1:1 molar ratio) with 2 mM Mg-ADP, about 5 min at room temperature, no substrate"}, "[3]": {"target": "human mitochondrial heat shock protein 60 (hsp60), wild type (human) (UniProt P10809)", "assay": "dynamic light scattering; 1 uM hsp60 (wild type or mutant), 2 uM hsp10, 2 mM ADP; 5 min at 37 C; unbound nucleotide removed on desalting spin columns"}, "[4]": {"target": "human mitochondrial heat shock protein 60 (hsp60), wild type (human) (UniProt P10809)", "assay": "dynamic light scattering; 1 uM hsp60 (wild type or mutant), 2 uM hsp10, 100 mM ATP, 100 mM MgCl2; 5 min at 37 C; unbound nucleotide removed on desalting spin columns"}, "[5]": {"target": "human mitochondrial heat shock protein 60 (hsp60), wild type (human) (UniProt P10809)", "assay": "negative-stain electron microscopy; wild type hsp60/hsp10 with 2 mM ATP, about 5 min at room temperature, no substrate; bullet reconstruction, C7 symmetry, about 17 A"}, "[6]": {"target": "human mitochondrial heat shock protein 60 (hsp60), wild type (human) (UniProt P10809)", "assay": "negative-stain electron microscopy; hsp60 and hsp10 (2:1 molar ratio) with 100 mM ATP, about 5 min at room temperature, no substrate; football reconstruction, D7 symmetry, about 20 A"}, "[7]": {"target": "human mitochondrial heat shock protein 60 (hsp60), wild type (human) (UniProt P10809)", "assay": "negative-stain electron microscopy; purified hsp60/hsp10 at 0.2 mg/ml on carbon grids, no nucleotide and no substrate (APO conformation); class averages and single-particle reconstruction"}}, "data": [{"substance": "human mitochondrial heat shock protein 60 (hsp60), wild type (from UniProt P10809 27-573) (natural protein)", "values": [{"measurement": "stoichiometry N", "setting": "[1]", "result": 14}, {"measurement": "stoichiometry N", "setting": "[2]", "result": 7}, {"measurement": "stoichiometry N", "setting": "[3]", "result": 14}, {"measurement": "stoichiometry N", "setting": "[4]", "result": 14}, {"measurement": "stoichiometry N", "setting": "[5]", "result": 14}, {"measurement": "stoichiometry N", "setting": "[6]", "result": 14}, {"measurement": "stoichiometry N", "setting": "[7]", "result": 14}]}]}
